Results on six molecules are retold here after patent US20220048993A1 (published 2022).

The target in assay [1] is T1, soluble cynomolgus FcRH5 protein fragment (cynomolgus monkey).
T1 chain: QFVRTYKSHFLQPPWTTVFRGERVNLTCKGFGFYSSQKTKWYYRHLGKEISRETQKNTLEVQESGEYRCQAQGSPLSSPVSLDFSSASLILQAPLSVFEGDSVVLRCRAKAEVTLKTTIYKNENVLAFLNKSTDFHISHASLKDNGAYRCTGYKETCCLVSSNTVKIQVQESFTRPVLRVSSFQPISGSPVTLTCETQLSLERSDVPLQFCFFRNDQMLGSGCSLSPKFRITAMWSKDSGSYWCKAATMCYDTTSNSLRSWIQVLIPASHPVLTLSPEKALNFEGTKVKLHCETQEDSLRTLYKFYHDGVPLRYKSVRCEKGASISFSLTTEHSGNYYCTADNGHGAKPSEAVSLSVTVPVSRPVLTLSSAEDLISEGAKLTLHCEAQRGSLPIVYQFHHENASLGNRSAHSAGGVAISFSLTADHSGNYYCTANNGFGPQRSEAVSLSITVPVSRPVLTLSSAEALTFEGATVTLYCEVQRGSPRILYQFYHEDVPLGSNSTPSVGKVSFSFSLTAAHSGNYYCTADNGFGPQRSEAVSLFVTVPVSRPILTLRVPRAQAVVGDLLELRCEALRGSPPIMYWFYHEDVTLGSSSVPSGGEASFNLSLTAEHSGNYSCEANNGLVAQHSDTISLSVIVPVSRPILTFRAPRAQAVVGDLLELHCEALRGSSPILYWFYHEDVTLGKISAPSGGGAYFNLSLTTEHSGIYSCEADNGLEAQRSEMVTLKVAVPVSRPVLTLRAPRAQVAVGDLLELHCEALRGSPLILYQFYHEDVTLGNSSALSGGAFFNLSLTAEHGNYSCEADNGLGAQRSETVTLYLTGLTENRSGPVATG
Description: SPR, hIgG capture, 1:1 model.

In assay [2] the target is T2, cynomolgus monkey FcRH5, full-length (cynomolgus monkey).
T2 construct: also called cyno FcRH5; Cynomolgus FcRH5
T2 chain: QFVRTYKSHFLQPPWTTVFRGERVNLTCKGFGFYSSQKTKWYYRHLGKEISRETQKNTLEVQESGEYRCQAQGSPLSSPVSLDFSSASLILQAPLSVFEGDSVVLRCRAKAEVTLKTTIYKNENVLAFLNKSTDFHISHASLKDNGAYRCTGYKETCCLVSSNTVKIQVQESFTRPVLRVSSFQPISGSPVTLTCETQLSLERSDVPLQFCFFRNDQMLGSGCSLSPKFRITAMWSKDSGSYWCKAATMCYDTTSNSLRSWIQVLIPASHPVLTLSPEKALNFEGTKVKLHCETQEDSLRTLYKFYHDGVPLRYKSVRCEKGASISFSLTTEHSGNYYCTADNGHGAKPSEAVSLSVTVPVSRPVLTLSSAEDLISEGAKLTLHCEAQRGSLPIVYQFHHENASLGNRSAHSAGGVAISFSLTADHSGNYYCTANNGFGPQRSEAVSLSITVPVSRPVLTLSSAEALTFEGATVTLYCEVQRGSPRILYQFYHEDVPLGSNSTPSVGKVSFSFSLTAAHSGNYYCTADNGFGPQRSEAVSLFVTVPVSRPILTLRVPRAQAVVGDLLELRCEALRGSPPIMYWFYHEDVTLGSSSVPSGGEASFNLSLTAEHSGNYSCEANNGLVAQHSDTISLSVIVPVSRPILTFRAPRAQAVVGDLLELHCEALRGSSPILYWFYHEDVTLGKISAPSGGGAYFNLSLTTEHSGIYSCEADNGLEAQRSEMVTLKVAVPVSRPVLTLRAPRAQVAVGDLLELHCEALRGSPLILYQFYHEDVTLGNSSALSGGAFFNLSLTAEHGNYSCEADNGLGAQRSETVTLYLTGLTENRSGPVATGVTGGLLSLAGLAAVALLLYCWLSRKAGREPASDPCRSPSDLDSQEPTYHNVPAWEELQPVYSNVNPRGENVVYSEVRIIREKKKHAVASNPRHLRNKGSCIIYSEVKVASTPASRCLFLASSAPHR
Briefly: FACS, SVT2 cells, TDB 3 µg/ml. The protocol: Human FcRH5, cyno FcRH5, human FcRH1, FcRH2, FcRH3, and FcRH4 transfected mouse SVT2 cells were used to test binding and cross-reactivity of FcRH5 TDBs. The method was carried out as follows. Cultured SVT2 cells were lifted using non-enzyme cell dissociation buffer (Sigma, #C5914). 1×10⁵ cells were suspended in 100 μL and incubated with FcRH5 TDBs at 3 μg/ml. Cells were then washed with FACS buffer (PBS, 1% BSA, 2 mM EDTA) and incubated with goat-anti-human Fc PE (Jackson Immunoresearch, #109-116-170) at a 1:100 dilution. Cells were washed twice with FACS buffer before flow cytometry analysis was carried out on a FACSCalibur.

The target in assay [3] is T1, soluble cynomolgus FcRH5 protein …. Briefly: BIACORE (FIG. 15).
Assay [4] deals with T3, recombinant cynomolgus E11 protein (cynomolgus monkey).
T3 chain: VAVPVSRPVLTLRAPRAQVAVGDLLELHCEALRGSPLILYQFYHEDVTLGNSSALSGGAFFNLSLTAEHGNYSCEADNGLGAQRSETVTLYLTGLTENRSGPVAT
Briefly: SPR, mIgG2a captured, monovalent.

Assay [5] has as its target T3, recombinant cynomolgus E11 protein. Description: SPR, mIgG2a captured, monovalent.

B1: 1G7.v1.4/38E4.v1 TDB (bispecific antibody, V domains shown)
VH 1: EVQLVESGPGLVKPSETLSLTCTVSGFSLTRFGVHWVRQPPGKGLEWLGVIWRGGSTDYNAAFMSRLTISKDNSKNQVSLKLSSVTAADTAVYYCSNHYYGSSDYALDNWGQGTLVTVSS
VL 1: DIQMTQSPSSLSASVGDRVTITCKASQDVRNLVVWFQQKPGKAPKLLIYSGSYRYSGVPSRFSGSGSGTDFTLTISSLQPEDFATYYCQQHYSPPYTFGQGTKVEIK
VH 2: EVQLVQSGAEVKKPGASVKVSCKASGFTFTSYYIHWVRQAPGQGLEWIGWIYPENDNTKYNEKFKDRVTITADTSTSTAYLELSSLRSEDTAVYYCARDGYSRYYFDYWGQGTLVTVSS
VL 2: DIVMTQSPDSLAVSLGERATINCKSSQSLLNSRTRKNYLAWYQQKPGQSPKLLIYWTSTRKSGVPDRFSGSGSGTDFTLTISSLQAEDVAVYYCKQSFILRTFGQGTKVEIK
notes: knob-into-hole full-length TDB; also called 1G7.v1.4 TDB
With B1, in assay [1], binding was put at a Kd of 6.3 nM, the koff worked out at 0.0008 s⁻¹ and the kon was 100000 M⁻¹ s⁻¹. For the same molecule, in assay [2], the binding result was “binds”.

B2: hu1G7.v85 (hIgG1) (antibody, V domains shown)
VH: EVQLVESGPGLVKPSETLSLTCTVSGFSLTRFGVHWVRQPPGKGLEWLGVIWRGGSTDYNAAFVSRLTISKDNSKNQVSLKLSSVTAADTAVYYCSNHYYGSSDYALDNWGQGTLVTVSS
VL: DIQMTQSPSSLSASVGDRVTITCKASQDVRNLVVWFQQKPGKAPKLLIYSGSYRYSGVPSRFSGSGSGTDFTLTISSLQPEDFATYYCQQHYSPPYTFGQGTKVEIK
notes: bivalent human IgG1; also called hu1G7.v1.4.M64V
In assay [1], B2 returned a Kd of 7.2 nM, a koff of 0.001 s⁻¹ and a kon of 100000 M⁻¹ s⁻¹.

B3: hu1G7.v1.4 (hIgG1) (antibody, V domains shown)
VH: EVQLVESGPGLVKPSETLSLTCTVSGFSLTRFGVHWVRQPPGKGLEWLGVIWRGGSTDYNAAFMSRLTISKDNSKNQVSLKLSSVTAADTAVYYCSNHYYGSSDYALDNWGQGTLVTVSS
VL: DIQMTQSPSSLSASVGDRVTITCKASQDVRNLVVWFQQKPGKAPKLLIYSGSYRYSGVPSRFSGSGSGTDFTLTISSLQPEDFATYYCQQHYSPPYTFGQGTKVEIK
notes: human IgG1
In assay [1], B3 showed a Kd of 7.7 nM, a dissociation rate constant (koff) of 0.001 s⁻¹ and a kon of 100000 M⁻¹ s⁻¹.

B4: hu1G7.v93/38E4.v1 TDB (bispecific antibody, V domains shown)
VH 1: EVQLVESGPGLVKPSETLSLTCTVSGFSTTRFGVHWVRQPPGKGLEWLGVIWRGGSTDYNAAFVSRLTISKDNSKNQVSLKLSSVTAADTAVYYCSNHYYGSPDYALDNWGQGTLVTVSS
VL 1: DIQMTQSPSSLSASVGDRVTITCKASQDVSNLVVWFQQKPGKAPKLLIYSGSYRYSGVPSRFSGSGSGTDFTLTISSLQPEDFATYYCQQHYSPPYTFGQGTKVEIK
VH 2: EVQLVQSGAEVKKPGASVKVSCKASGFTFTSYYIHWVRQAPGQGLEWIGWIYPENDNTKYNEKFKDRVTITADTSTSTAYLELSSLRSEDTAVYYCARDGYSRYYFDYWGQGTLVTVSS
VL 2: DIVMTQSPDSLAVSLGERATINCKSSQSLLNSRTRKNYLAWYQQKPGQSPKLLIYWTSTRKSGVPDRFSGSGSGTDFTLTISSLQAEDVAVYYCKQSFILRTFGQGTKVEIK
notes: knob-into-hole full-length TDB; also called 1G7.v93 TDB
Turning to B4, in assay [3], the Kd turned out to be 8.1 nM.

B5: 17B1 (antibody, mouse IgG2a, V domains shown)
VH: QVQLQQSGPELVRPGVSVKISCKGSGYTFTHYAMHWVKQSHTKSLEWIGMISSSSGNTNFNQKFMDKATMTVDKSSTTAYLELARLTFGDSAIYYCARWSYYALFDYWGQGTTVTVSS
VL: ENVLTQSPAIMSASPGEKVTMTCSADSSVDYIHWYQQKSNTSPKLWIYDTSKLASGVPGRFSGSGSGNSYSLTISSMEAEDFATYYCFQGSGYPLTFGSGTKLELK
notes: mouse mAb, Campaign C; recombinant murine IgG2a for BIACORE
B5: the Kd in assay [4] stood at 27 nM.

B6: 15G8 (antibody, mouse IgG2a, V domains shown)
VH: EVQLQQSGPELVKPGASVKMSCKASGYTFTNYVIHWMKQKPGQGLEWIGYISPYNDYTKYNEKFEGKATLTSDKSSNTAYMELSSLTSEDSAVYYCARRDYYGSSDYWGQGTTLTVSS
VL: QIVLTQSPAIMSASPGEKVTMTCSASSSVDYMHWYQQKSGTSPKKWIYDTSKLASGVPARFSGSGSGTSYSLTIGSMEAEDAATYYCQQWSSNPPTFGGGTKLEIK
notes: mouse mAb, Campaign C; recombinant murine IgG2a for BIACORE; also called mAb 15G8
With B6, the “KD difference between human and cynomolgus E11 domains” value in assay [5] is about 20 fold. Besides, the Kd in assay [4] is 9.1 nM.
